This note sets out measurements from paper PMC5909903, “Impact of selected amino acids of HP0377 (Helicobacter pylori thiol oxidoreductase) on its functioning as a CcmG (cytochrome c maturation) protein and Dsb (disulfide bond) isomerase” (PLoS ONE, 2018).

For data set [1], the target named is apocytochrome c (HP1227) (Helicobacter pylori) (UniProt O25825). Briefly: SEC; lysates of E. coli overexpressing HP0377 CSYA and HP1227 mixed, overnight at 37°C, Ni IMAC, then ENrich SEC70 in 20 mM Tris pH 8, 150 mM NaCl; fractions on SDS-PAGE with or without DTT; covalent (disulfide) complex. (In general: Size exclusion chromatography separates by hydrodynamic size, large species first.)

Data set [2] deals with the molecule itself. Briefly: cross-linking; glutaraldehyde (0.001-0.1%) on purified truncated HP0377 at 2.5 mg/ml, SDS-PAGE.

Regarding “HP0377 with the CSYC motif changed to CSYA (C92A), amino acids 25-221, His6 fusion (from UniProt O25140 25-221) (enzyme)”, the stoichiometry N (HP0377 per apocytochrome c) in data set [1] is 2.

B1: HP0377 (Helicobacter pylori thiol oxidoreductase), amino acids 25-187 (domain or fragment, Helicobacter pylori strain 26695, UniProt O25140 25-187, looked up)
chain: CKSNNKDKLDENLLSSGSQSSKELNDERDNIDKKSYAGLEDVFSDNKSISPNDKYMLLVFGRNGCSYCERFKKDLKNVKELRDYIKEHFSAYYVNISYSKEHDFKVGDKNNEKEIKMSTEELAQIYAVQSTPTIVLSDKTGKTIYELPGYMPSTQFLAVLEFI
notes: HP0377 (CcmG family thiol oxidoreductase), Helicobacter pylori 26695, amino acids 25-187 of the native HP0377; also called 25-187 variant of HP0377; C-terminal-truncated HP0377; source: E. coli, purified
For B1, the stoichiometry N – broadly, a count of units in the complex or per binding partner – in data set [2] turned out to be 2.

B2: HP0377 (Helicobacter pylori thiol oxidoreductase), amino acids 33-221 (domain or fragment, Helicobacter pylori strain 26695, UniProt O25140 33-221, looked up)
chain: LDENLLSSGSQSSKELNDERDNIDKKSYAGLEDVFSDNKSISPNDKYMLLVFGRNGCSYCERFKKDLKNVKELRDYIKEHFSAYYVNISYSKEHDFKVGDKNNEKEIKMSTEELAQIYAVQSTPTIVLSDKTGKTIYELPGYMPSTQFLAVLEFIGDGKYQDTKDDEDLTKKLKAYIKYKTNLSKSKSN
notes: HP0377 (CcmG family thiol oxidoreductase), Helicobacter pylori 26695, amino acids 33-221 of the native HP0377; the variant previously analysed by Yoon et al. [16]; also called 33-221 variant of HP0377; N-terminal-shortened HP0377; source: E. coli, purified
In the case of B2, the “stoichiometry N” value in data set [2] was determined as 2.
